Assay results from patent US20250002610A1 (Genmab, published 2025).

Tests used:
human DR4HsECD-FcHisCtag = target: T1, human DR4HsECD-FcHisCtag (human); experiment: BLI, antigen captured on anti-Penta-HIS sensors
T1 construct: also called recombinant human DR4
Method: The binding affinity of BisG1-FAPα-FERL/DR4-FERR, BisG1-b12-FERL/DR4-FERR and control BisG1-FAPα-FERL/b12-FERR to recombinant human and cynomolgus monkey DR4 protein was determined using label-free biolayer interferometry on an Octet HTX instrument (Sartorius).
The protocol detailed in Example 5 was used with the following differences: anti-Penta-HIS biosensors (Sartorius, Cat #18-5120) were used; the sensors were preconditioned by exposure to 10 mM glycine (Sigma-Aldrich, Cat #15527) buffer pH 1.5 for 5 s, followed by neutralization in Sample Diluent (Sartorius, Cat #18-1104) for 5 s; both steps were repeated 2 times; the sensors were loaded with 50 nM human DR4HsECD-FcHisCtag (SEQ ID NO: 66), or cynomolgus DR4MfECD-FcHisCtag (SEQ ID NO: 67), for 600 s; the dissociation time was 1,000 s; The window of interest for the dissociation time was set at 100 s for the cynomolgus antigen and at 1,000 s for the human antigen.

[1] = target: T2, FcγRIIa-R131 (CD32A Protein, Human, Recombinant (167 Arg, His & AVI Tag), Biotinylated) (human, UniProt P12318 34-218, limits assumed, biotinylated); experiment: SPR (Biacore 8K), His-tagged FcγRIIa-R131 captured on an anti-His chip, antibody as analyte, endpoint response against concentration
T2 construct: Bought reagent; not shown: His & AVI tag
T2 sequence (looked up): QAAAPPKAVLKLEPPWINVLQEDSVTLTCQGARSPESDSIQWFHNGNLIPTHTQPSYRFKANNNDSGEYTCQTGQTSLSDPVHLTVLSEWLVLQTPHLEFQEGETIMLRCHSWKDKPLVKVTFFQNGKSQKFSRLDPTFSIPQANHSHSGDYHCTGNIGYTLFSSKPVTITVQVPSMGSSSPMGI
Method: (§1) Binding of BisG1-FAPα-FERL/DR4-FERR to immobilized human His-tagged FcγRs and FcRn was analyzed by SPR using a Biacore 8K SPR system (Cytiva). To this end, anti-His antibodies were covalently immobilized on the surface of Biacore Series S Sensor Chip CM5 (Cytiva, Cat. #29104988) using the Amine Coupling Kit (Cytiva, Cat. #BR100050) and a His Capture Kit (Cytiva, Cat. #29234602) according to the manufacturer's instructions. To assess antibody binding to immobilized human FcγRs, aliquots of the recombinant His-tagged FcγR proteins (Table 24) were diluted in HBS EP+Buffer pH 7.4 (Cytiva, Cat. #BR100669) and used to capture the FcγR proteins on the surface of the anti-His antibody-coated sensors using a flow rate of 10 μL/min and a contact time of 60 s. Captured levels ranged from 434 to 592 RU. After three start-up cycles of HBS-EP+Buffer, concentration ranges of BisG1-FAPα-FERL/DR4-FERR or IgG1-b12 antibodies (Table 25) were injected to generate binding curves on FcγR-captured sensors (active surface). For each antibody sample, a parallel flow cell without captured FcγRs was included (reference surface), which was used for RU background correction.
(§2) All sensorgrams were subtracted by the signal of the third start-up cycle with buffer only (mock analyte). […]

[2] = target: T3, FcγRIIIa-V158 (CD16a Protein, Human, Recombinant (176 Val, His & AVI Tag)) (human, UniProt P08637 17-208); experiment: SPR (Biacore 8K), His-tagged FcγRIIIa-V158 captured on an anti-His chip, antibody as analyte, endpoint response against concentration
T3 construct: Bought reagent; not shown: His & AVI tag
Method: as §1, §2

[3] = target: T4, FcγRIIb (CD32B/Fcgr2b Protein, Human, Recombinant (His & AVI Tag), Biotinylated) (human, UniProt P31994 43-217, limits assumed, biotinylated); experiment: SPR (Biacore 8K), His-tagged FcγRIIb captured on an anti-His chip, antibody as analyte, endpoint response against concentration
T4 construct: Bought reagent; not shown: His & AVI tag
T4 sequence (looked up): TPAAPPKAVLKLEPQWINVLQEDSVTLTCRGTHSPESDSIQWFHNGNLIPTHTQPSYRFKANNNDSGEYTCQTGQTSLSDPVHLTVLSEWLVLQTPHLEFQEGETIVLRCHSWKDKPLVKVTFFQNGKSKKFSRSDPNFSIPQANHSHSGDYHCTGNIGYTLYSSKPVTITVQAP
Method: as §1, §2

[4] = target: T5, FcγRIa (CD64 Protein, Human, Recombinant (ECD, His Tag)) (human, UniProt P12314 16-292); experiment: SPR (Biacore 8K), His-tagged FcγRIa captured on an anti-His chip, antibody as analyte, endpoint response against concentration
T5 construct: extracellular domain; Bought reagent; not shown: His tag
Method: as §1, §2

[5] = target: T6, cynomolgus monkey DR4 with death domain deletion on ExpiCHO-S cells (cynomolgus monkey (Macaca fascicularis)); experiment: flow cytometry, ExpiCHO-S cells expressing cynomolgus monkey DR4, n = 1
T6 construct: also called cynomolgus DR4
T6 chain: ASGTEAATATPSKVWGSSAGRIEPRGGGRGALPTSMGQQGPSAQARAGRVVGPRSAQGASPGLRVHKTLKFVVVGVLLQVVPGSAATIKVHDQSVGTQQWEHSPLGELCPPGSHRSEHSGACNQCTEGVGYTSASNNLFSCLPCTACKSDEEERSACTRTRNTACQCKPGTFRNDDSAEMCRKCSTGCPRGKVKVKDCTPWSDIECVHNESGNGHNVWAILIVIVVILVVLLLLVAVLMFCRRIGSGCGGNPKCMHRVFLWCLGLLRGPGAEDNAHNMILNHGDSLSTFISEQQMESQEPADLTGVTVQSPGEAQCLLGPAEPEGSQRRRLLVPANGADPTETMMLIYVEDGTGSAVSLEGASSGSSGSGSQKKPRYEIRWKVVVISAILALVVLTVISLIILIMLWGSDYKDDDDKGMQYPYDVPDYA
Method: Binding of BisG1-FAPα-FERL/DR4-FERR, BisG1-DR4-FEAL/b12-FEAR and IgG1-DR4-FERR to DR4 of various species commonly used for nonclinical toxicology studies was assessed by flow cytometry using ExpiCHO-S cells transiently expressing DR4 from different animal species. In contrast to other species, rodents only express one DR which has highest homology with human DR5. Therefore, ExpiCHO-S cells transiently expressing rat and mouse DR protein were used instead. All DR constructs lack the intracellular DD to avoid apoptosis of transfected cells upon DR(4) activation. IgG1-b12 was used as negative control.

T3 sequence (P08637 17-208 F176V limits assumed): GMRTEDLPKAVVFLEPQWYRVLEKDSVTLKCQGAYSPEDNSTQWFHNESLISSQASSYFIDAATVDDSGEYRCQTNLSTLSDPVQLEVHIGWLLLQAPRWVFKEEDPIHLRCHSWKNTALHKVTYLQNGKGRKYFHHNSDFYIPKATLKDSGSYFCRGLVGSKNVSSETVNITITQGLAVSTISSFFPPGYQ
T1 sequence (chain, as listed by the source limits assumed): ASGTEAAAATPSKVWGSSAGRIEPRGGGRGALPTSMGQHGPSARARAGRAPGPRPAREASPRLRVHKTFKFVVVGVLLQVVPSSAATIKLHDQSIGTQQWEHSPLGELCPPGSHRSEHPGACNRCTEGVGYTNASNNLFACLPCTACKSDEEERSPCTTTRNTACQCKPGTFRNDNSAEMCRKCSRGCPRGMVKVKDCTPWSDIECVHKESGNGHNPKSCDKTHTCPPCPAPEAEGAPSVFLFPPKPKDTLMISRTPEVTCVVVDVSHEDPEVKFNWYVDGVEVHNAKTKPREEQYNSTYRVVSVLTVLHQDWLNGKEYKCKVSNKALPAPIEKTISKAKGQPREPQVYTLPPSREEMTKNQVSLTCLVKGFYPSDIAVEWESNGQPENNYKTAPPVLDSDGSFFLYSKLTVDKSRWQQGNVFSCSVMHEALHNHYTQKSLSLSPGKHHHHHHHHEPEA
T5 sequence (P12314 16-292): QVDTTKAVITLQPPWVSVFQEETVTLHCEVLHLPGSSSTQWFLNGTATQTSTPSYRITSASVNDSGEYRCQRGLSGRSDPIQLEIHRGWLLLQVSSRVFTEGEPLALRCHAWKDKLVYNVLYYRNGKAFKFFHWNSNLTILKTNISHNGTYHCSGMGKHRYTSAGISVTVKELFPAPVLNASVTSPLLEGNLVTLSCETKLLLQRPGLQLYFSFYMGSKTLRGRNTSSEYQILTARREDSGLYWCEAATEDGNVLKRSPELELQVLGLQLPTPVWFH

B1: BisG1-FAPα-FERL/b12-FERR (bispecific antibody, human IgG1, kappa)
heavy 1: EVQLLESGGGLVQPGGSPRLSCEASGFTFSSYALSWVRQAPGKGLEWVSAISGSGGGRYYADSVKGRFTISRDNSKNTLFLQMNSLRAEDTAVYYCAKEGYSSSGTYWDHWGQGTLVTVSSASTKGPSVFPLAPSSKSTSGGTAALGCLVKDYFPEPVTVSWNSGALTSGVHTFPAVLQSSGLYSLSSVVTVPSSSLGTQTYICNVNHKPSNTKVDKRVEPKSCDKTHTCPPCPAPEFERGPSVFLFPPKPKDTLMISRTPEVTCVVVDVSHEDPEVKFNWYVDGVEVHNAKTKPREEQYNSTYRVVSVLTVLHQDWLNGKEYKCKVSNKALPAPIEKTISKAKGQPREPQVYTLPPSREEMTKNQVSLTCLVKGFYPSDIAVEWESNGQPENNYKTTPPVLDSDGSFLLYSKLTVDKSRWQQGNVFSCSVMHEALHNHYTQKSLSLSPG
light 1: AIQMTQSPSSVSASVGDRVTITCRASQGVSSWLAWYQQKPGRAPKLLIYVASTLQSGVPSRFSGSGSGTDFTLTINSLQPEDFATYYCQQANSFPPTFGQGTRLEMKRTVAAPSVFIFPPSDEQLKSGTASVVCLLNNFYPREAKVQWKVDNALQSGNSQESVTEQDSKDSTYSLSSTLTLSKADYEKHKVYACEVTHQGLSSPVTKSFNRGEC
heavy 2: QVQLVQSGAEVKKPGASVKVSCQASGYRFSNFVIHWVRQAPGQRFEWMGWINPYNGNKEFSAKFQDRVTFTADTSANTAYMELRSLRSADTAVYYCARVGPYSWDDSPQDNYYMDVWGKGTTVIVSSASTKGPSVFPLAPSSKSTSGGTAALGCLVKDYFPEPVTVSWNSGALTSGVHTFPAVLQSSGLYSLSSVVTVPSSSLGTQTYICNVNHKPSNTKVDKRVEPKSCDKTHTCPPCPAPEFERGPSVFLFPPKPKDTLMISRTPEVTCVVVDVSHEDPEVKFNWYVDGVEVHNAKTKPREEQYNSTYRVVSVLTVLHQDWLNGKEYKCKVSNKALPAPIEKTISKAKGQPREPQVYTLPPSREEMTKNQVSLTCLVKGFYPSDIAVEWESNGQPENNYKTTPPVLDSDGSFFLYSRLTVDKSRWQQGNVFSCSVMHEALHNHYTQKSLSLSPG
light 2: EIVLTQSPGTLSLSPGERATFSCRSSHSIRSRRVAWYQHKPGQAPRLVIHGVSNRASGISDRFSGSGSGTDFTLTITRVEPEDFALYYCQVYGASSYTFGQGTKLERKRTVAAPSVFIFPPSDEQLKSGTASVVCLLNNFYPREAKVQWKVDNALQSGNSQESVTEQDSKDSTYSLSSTLTLSKADYEKHKVYACEVTHQGLSSPVTKSFNRGEC
- binding result (human DR4HsECD-FcHisCtag): no binding (tested: 800 nM)

B2: IgG1-b12 (antibody)
heavy: not shown
light: EIVLTQSPGTLSLSPGERATFSCRSSHSIRSRRVAWYQHKPGQAPRLVIHGVSNRASGISDRFSGSGSGTDFTLTITRVEPEDFALYYCQVYGASSYTFGQGTKLERKRTVAAPSVFIFPPSDEQLKSGTASVVCLLNNFYPREAKVQWKVDNALQSGNSQESVTEQDSKDSTYSLSSTLTLSKADYEKHKVYACEVTHQGLSSPVTKSFNRGEC
notes: HIV gp120 antibody b12 with wild-type IgG1 Fc; also called IgG-b12
- binding result [1]: binds
- binding result [2]: binds
- binding result [3]: binds
- binding result [4]: binds

B3: IgG1-DR4-FERR (antibody, V domains shown)
VH: QVQLQESGPGLVKPSGTLSLTCAVSGGSISSYSWWSWIRQPPGKGLEWIGELYHSGSTNYNPSLKSRVTISVDKSKNQFSLKLRSVTAADTAVYYCVRGVATIDYWGQGTLVTVSS
VL: QSALTQPPSASGSPGQSVTISCTGTSSDVGGYNFVSWYQQDPGKAPKLLIYEVTKRPSGVPDRFSGSKSGNTASLTVSGLQAEDEADYYCSSYAGSNNVMFGGGTKLTVLG
notes: Bivalent monoclonal IgG1 lambda
- EC50 [5]: 2.57 µg/mL
